Measurements as given in the Immune Epitope Database (IEDB).

Legend:
Test in all cases: IEDB peptide-MHC binding, purified MHC/competitive/fluorescence; filed as Kd, often an IC50 or EC50 that approximates it; ≥ and ≤ were set here for values at or beyond the usual limits of such assays
Settings in all cases: source organism: Cryptosporidium parvum Iowa II
[1] = molecular target: HLA-A*30:01
[2] = molecular target: HLA-A*30:02
[3] = molecular target: HLA-B*07:02
[4] = molecular target: HLA-B*14:02
[5] = molecular target: HLA-B*40:01
[6] = molecular target: HLA-B*51:01
[7] = molecular target: HLA-B*53:01

Measured: Kd

TVFRNQNRV
≥ 5 µM: all assays above
